# Tested on: K4 kissing-loop RNA reporter
# Assay: apparent KD of K4 kissing-loop reporter; higher = weaker reporter binding
# Conditions: Eterna round: R107
# Description: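 RNA-MaP round R107: designed RNA switches with theophylline, tryptophan, arginine or FMN aptamers are transcribed on-chip within common flanks. They are titrated with a labelled K4 kissing-loop RNA reporter in RNA-MaP buffer (100 mM Tris pH 7.5, 80 mM KCl, 4 mM MgCl2), without ligand or with the indicated ligand. Median apparent KD per design.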
# [1] = input ligand: theophylline 20 uM
# [2] = input ligand: tryptophan 2.4 mM
# 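Note: bound reporter read as fluorescence of individual clusters on recovered sequencing chips by microscopy, with normalized cluster intensities fitted with a binding model.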
Sequence,apparent KD of K4 kissing-loop reporter (input ligand: FMN 200 uM) [nM],apparent KD of K4 kissing-loop reporter (input ligand: arginine 13.2 mM) [nM],apparent KD of K4 kissing-loop reporter (input ligand: none) [nM],apparent KD of K4 kissing-loop reporter [1] [nM],apparent KD of K4 kissing-loop reporter [2] [nM]
GGAGUUACCUGGGAUACCAGUCGGAGGCCCAGAGCUCGGAGUGAUGUUCUGGGAUGUUUCGGCCCUUGGCAGCUCUGGGUCUCCC [#2 Exclusion - Theophylline B Attempt #7 (HarryS)],1690,563,1040,895,718
GGAUAGGACAGAGGAUAUGGAGAGUCUACAAAGUAGGCUCAUAAUCCUUGAAUGGAAGUGAUGUUUCCAGAAGGCUGUCCUAUCG [FmnBX 17 - #SwitchBubble #StaticStem #Palindromic],664,99.9,103,101,119
GGAUAGGACAGAGGAUAUGGUAGUGAUGUUACCAAACUGGUUACUCUUGUCAGAAAACUGGCAUCUCCAGAAGGCUGUCCUAUCG [KL-XFMN-B10],594,109,123,135,127
GGAUAGGACAGAGGAUAUGGUAGUGAUGUUACCAAACUGGUUAUCAAUGUUAGAAAAUUGACAAAACCAGAAGGCUGUCCUAUCG [KL-XFMN-B15],129,65.6,67.8,59.2,66.6
GGAUAGGACUGAGGAUAUGGGCUAGGCAAGAAUAACUUGUCUAGCAAAUCCAUGAGGAGUGAUGUUCCAGAAGGCAGUCCUAUCG [FmnBX 1 U10+A76],732,135,170,167,113
GGAUCCACCAGUGAUGUUGGAAAAUACUCCAAGGAUAUGACGAAAGUCAGAAGGUGGUAGACUGGACAAAGUCCAGUCGGAUCCA [FmnA 27 #SwitchBubble #K4Early],531,205,527,537,504
GGAUCCACCAGUGAUGUUGGAGAAAACUCGAAGGAUAUGACGAAAGUCAGAAGGUCGUAGACUGGACAAAGUCCGGUCGGAUCCA [FmnA 19 G30+C56],500,541,539,490,461
GGAUCCACCAGUGAUGUUGGAGAAAACUCUAAGGAUAUGACGAAAGUCAGAAGGUGGUAGACUGGACAAAGUCCGGUAGGAUCCA [FmnA10 U30+A78],682,201,617,216,250
GGAUGCAUUUUGGAUACCAGUCUAGUGAUGUUAGACUGAUAAUAACGGGCAGCGUUGGCAGACCCUUGGCAGCCAAAAUACUUAA [theeternabot_exclusion_KL_Theo_B_33],62.2,64.6,54.8,63.9,58.9
GGCACUACAGCGGCCGCCACUGUUUAGUCCAUCGCUUGCGAGUGAUGUUCGUAGGUACUGCAGCUCAGGACCGGGCUGUCCUUAC [theeternabot_sameState_KL_Trp_B_34],475,393,471,310,388
GGCACUUUUGGUAGAAAACAUCUACCUCUAUAGGAUAUGCCGAAAGGCAGAAGGAUAGACCUACAGAGUGAUGUUCUGCGUGCCU,874,143,447,356,283
GGCAUGGUGACGCGGCGGCCAUGCACUUGGGAGGAUAUGUUUCGUGACAGAAGGCCCAGUGAUGUUGGGUCUGUUCAAAAGGACU [Riteveat],491,170,192,174,141
GGCAUGGUGACGCGGCUGCCAUACGCUUGGGAGGAUAUGUUUCGUGACAGAAGGCCCAGUGAUGUUGGGUCUGUUCAAAAGGACU [Arisus],659,160,170,169,150
GGCCGCAAGGCGAGCGCUCCCACUCCGGAAGGAGCGCCCGUAAGGGCAGGUAGGUCGCCGGAGUGAUGUUCCGGUGGAGGGCUCG [#2 Exclusion - Arginine A Attempt #17 (Inspired by Omei)],565,239,547,443,460
GGCGCAGUGAUGUUGCGGGCCGAGAGUGAUACCAGCCGUAUUUGUGGCCCUUGGCAGCGCAGAACCAGUGAUGUUGGUUACUUGG [Same State Theophylline A GF 22],223,513,423,467,421
GGCGCCAGGAAAGGAUAUCUAAGUCUAUUAUCAAGAAUUGCCUCAAGAUCGGAGUGAUGUUCCCAGAGAGAAGGUUCUAUCCGCU [theeternabot_exclusion_KL_FMN_B_38],170,193,186,206,164
GGCGGCUGCGCGGAAGCGCAGCCGGCCGAUACCAGCGCGACGGCGCGCCCUUGGCAGCGGCGCCGAGUGAUGUUCGGCCUGCCGU [#2 Same State - Theophylline A Attempt #21 (HarryS)],122,82.2,95.3,124,117
GGCGUCUAAAAGUGCCUAGAGAGAAAGGAUACCAGCACCCGGCGGUGCCCUUGGCAGCCUAGCCCAGUGAUGUUGGGUCCUCUAA [Lasorian],380,159,312,336,286
GGCUAGACUUAGCUAGGUACAUAAUACGAUACCAGUCUAGAAAUAGACCCUUGGCAGCGUAGGCAGUGAUGUUGCCACUAGCUGA [Theo B SS t7],104,144,114,144,113
GGGAACUCUUACGAUACCAGCCGGAGUGAUGUUCCGCGCUUGGACGUAGUAACCCGCACCGGCCCUUGGCAGCGUGGAUCUUAUA [Esbedi],89.9,73.5,73.9,82.7,83.1
GGGAGAAGAGCGGCCGCCACUCAGAAAGAAGAAGAAUAUAGUGAUGUUAUAUAGGAAAGGAAGAAGAGGACCGGGCUUAAGAGGG [#18 K4 Tryptophan B Same State],144,132,149,177,171
GGGAGCAAAGCUCCCGGAUGCUAUUACCAGUAGGAUAUCUGGAAACAGAGAAGGGCUAAGCCAGUGAUGUUGGUUUCGAGCAUCC,596,575,754,575,514

Sequence,apparent KD of K4 kissing-loop reporter (input ligand: FMN 200 uM) [nM],apparent KD of K4 kissing-loop reporter (input ligand: arginine 13.2 mM) [nM],apparent KD of K4 kissing-loop reporter (input ligand: none) [nM],apparent KD of K4 kissing-loop reporter [1] [nM],apparent KD of K4 kissing-loop reporter [2] [nM]
GGGCAUCAGGCUGAUACCAGUGAUAAAGGAUAAGAGACAGGGAGUGAUGUUCCCUUUACCCACCCUUGGCAGCAGUUUAAGUUUG [Exclusion Theophylline B GF 16],92.8,94.9,111,94.3,87.1
GGGCAUGAUACGAUAAAAUAGUGGAGAGAUACCAGCGUUUUAGAUCGCCCUUGGCAGCUCUCGAGUGAUGUUCGGGUAGCUCUGA [Onedra],101,98.5,115,114,104
GGGCGCGGCGCGGCCGCCACUGCGCCUGGGUGCUCGCUGAGUGAUGUUCGUCGGCGGUUGGGUGGUAGGACCGGGUGCUGGCCGG [BDazzled - #13 SS Tryptophan B],654,463,525,522,527
GGGUCAGCGCGAAGGAGCGCCCUGACAGGUUGCUGCCGUGGGCAGUGAUGUUGCUCAGUCCGGCAGGUAGGUCGCGUGCUGACCC,202,151,183,166,169
GGGUCUGCCGGAAGGAGCGCACUAUGGAGUGAUGUUCCAUGACCGCACAGCUUGCGGUCAGUGCAGGUAGGUCGCCGGUAGCGUU [Inesor],163,154,175,177,162
GGGUCUGUCGGAAGGAGCGCGCUAUGGAGUGAUGUUCCAUGACCGUACAGCUUACGGUCAGCGCAGGUAGGUCGCCGAUAGCGUU [Geordiar],153,116,142,151,120
GGGUUGAGCGGAAGGAGCGGCUGAACCAGUGAUGUUGGUUAAUCCAAGUGAUGUUGGAAAAGCCAGGUAGGUCGCCGCUUUAUCC [Same State Arg B GF 3],979,533,1180,965,774
GGUAGCAUGGCGGCCGCCACUACCUAGUGAUGUUAGGCUGUGGACAUAGGAGCAAAAUAAAUAUGUAGGACCGGGCCAUGCUACC,127,101,121,126,123
GGUAGCAUGGCGGCCGCCACUACCUAGUGAUGUUAGGCUGUGGACAUAGGAGCAAGAUAAAUAUGUAGGACCGGGCCAUGCUACC,129,88.8,103,119,111
GGUAGCAUGGCGGCCGCCACUCUAUGCGAGUGAUGUUCGCAGCUCAAAGAGCACCCGGGAACAGAGAGGACCGGGCCAUGCUACC,294,228,261,302,213
GGUAGCAUGGCGGCCGCCACUGAGGCCCUAUGCGAGUCCUCUACAACCUAGUGAUGUUAGGCGUCCAGGACCGGGCCAUGCUACC,95.7,44.1,71.2,58.4,93
GGUAGCAUGGCGGCCGCCACUUAGACUGGAUCGGAAACGAUCCAGUGAAAACGAGUGAUGUUCGUAAGGACCGGGCCAUGCUACC,386,301,318,350,173
GGUAGCAUGGCGGCCGCCACUUCAAAUGGAGUGAUGUUCCAAGGCAUCGCGAAAGCGAUGCCAGGAAGGACCGGGCCAUGCUACC,831,859,522,566,143
GGUCGAGUGAUGUUCGAUGUAGUGCAUUCAGAGGAUAUAGGAUGGGCUAGAAGGCUGAAAGGUGCUUCGAGUGAUGUUCGAGGAU [Exclusion FMN A GF 3],105,80.7,126,115,89
GGUGACAACCAGAAGUGAUGUAUAGAAUAGCGAGGACCGGUACGGCCGCCACUCGUGAAGAGAAAGGAGUGAUGUUCCGUAAUGG [Kazoo C4],250,260,271,243,85.1
GGUGACGGCCAGGAGUGAUGUAUAGAAUAGCGAGGACCGGUACGGCCGCCACUCGUGAAGAAAAGGGAGUGAUGUUCCGUAAUGG [Kazoo B],380,284,450,229,302
GGUGCUGUCUGUGCCGCCCUCCUCGUCCCUCGAGGACCGGUACGGCCGCCACUCGAGUGAUGUUCGGGUAGCCAUCCCUGCUAGC [Bdazzled - #19 Exc. Tryptophan A],647,666,680,590,937
GGUUUAUAAGAGGAUACCAGUACAAAUAAAGUACAUUAAUAGUAGAGUGAUGUUCUAAAGUACCCUUGGCAGCUUAGAUUAAGUU [ExTheophylB.F],114,226,151,217,85.4
GGUUUAUAGGAGGAUACCAGUACGAAUAAAGUACAUUAAUAGUAGAGUGAUGUUCUAAAGUACCCUUGGCAGCUUAGAGUAAGUU [#18 K4 Theophylline B Exclusion],105,212,148,223,80.5
GUACGCUCUCGAGUGAUGUUCGGUAAUAGUUAGGAUAUCGCUUUUGCGAGAAGGAACUGAAUGAGGAAACUCGUUCUGAGUGUAC [FMN A 18],618,183,342,398,239
GUACGCUCUCGAGUGAUGUUCGGUAAUCGCGAGGAUAUCGCUUUUGCGAGAAGGCGCGGAAUGAGGAAACUCGUUCUGAGUGUAC [FMN A 23],364,444,461,637,715
GUAGAUAGGCUACAUCUCUAGUCUAAACACUAGGAUAUCAGGAAACUGAGAAGGAGUGUCAUUGGAGUGAUGUUCCAAGAAUAAU [KL-SSFMN-A17],166,195,185,225,167

# Source: the supplement of paper PMC9170038
